In IntAct's records for PubMed 31515488:

B1: Dynein light chain 2, cytoplasmic (Homo sapiens), Q96FJ2 (parent)
chain: MSDRKAVIKNADMSEDMQQDAVDCATQAMEKYNIEKDIAAYIKKEFDKKYNPTWHCIVGRNFGSYVTHETKHFIYFYLGQVAILLFKSG
B2: Inhibitor of nuclear factor kappa-B kinase-interacting protein (Homo sapiens), Q70UQ0-4 (parent)
chain: MSEVKSRKKSGPKGAPAAEPGKRSEGGKTPVARSSGGGGWADPRTCLSLLSLGTCLGLAWFVFQQSEKFAKVENQYQLLKLETNEFQQLQSKISLISEKLESTESILQEATSSMSLMTQFEQEVSNLQDIMHDIQNNEEVLTQRMQSLNEKFQNITDFWKRSLEEMNINTDIFKSEAKHIHSQVTVQINSAEQEIKLLTERLKDLEDSTLRNIRTVKRQEEEDLLRVEEQLGSDTKAIEKLEEEQHALFARDEDLTNKLSDYEPKVEECKTHLPTIESAIHSVLRVSQDLIETEKKMEDLTMQMFNMEDDMLKAVSEIMEMQKTLEGIQYDNSILKMQNELDILKEKVHDFIAYSSTGEKGTLKEYNIENKGIGGDF
partner: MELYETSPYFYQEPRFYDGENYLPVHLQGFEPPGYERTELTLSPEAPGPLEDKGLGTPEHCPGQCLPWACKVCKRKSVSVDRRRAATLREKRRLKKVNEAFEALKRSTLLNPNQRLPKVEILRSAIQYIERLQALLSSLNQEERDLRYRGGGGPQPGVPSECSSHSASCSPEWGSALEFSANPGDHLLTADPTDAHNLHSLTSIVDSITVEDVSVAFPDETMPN
B3: Protein LDOC1 (Homo sapiens), O95751 (parent)
chain: MVDELVLLLHALLMRHRALSIENSQLMEQLRLLVCERASLLRQVRPPSCPVPFPETFNGESSRLPEFIVQTASYMLVNENRFCNDAMKVAFLISLLTGEAEEWVVPYIEMDSPILGDYRAFLDEMKQCFGWDDDEDDDDEEEEDDY
partner: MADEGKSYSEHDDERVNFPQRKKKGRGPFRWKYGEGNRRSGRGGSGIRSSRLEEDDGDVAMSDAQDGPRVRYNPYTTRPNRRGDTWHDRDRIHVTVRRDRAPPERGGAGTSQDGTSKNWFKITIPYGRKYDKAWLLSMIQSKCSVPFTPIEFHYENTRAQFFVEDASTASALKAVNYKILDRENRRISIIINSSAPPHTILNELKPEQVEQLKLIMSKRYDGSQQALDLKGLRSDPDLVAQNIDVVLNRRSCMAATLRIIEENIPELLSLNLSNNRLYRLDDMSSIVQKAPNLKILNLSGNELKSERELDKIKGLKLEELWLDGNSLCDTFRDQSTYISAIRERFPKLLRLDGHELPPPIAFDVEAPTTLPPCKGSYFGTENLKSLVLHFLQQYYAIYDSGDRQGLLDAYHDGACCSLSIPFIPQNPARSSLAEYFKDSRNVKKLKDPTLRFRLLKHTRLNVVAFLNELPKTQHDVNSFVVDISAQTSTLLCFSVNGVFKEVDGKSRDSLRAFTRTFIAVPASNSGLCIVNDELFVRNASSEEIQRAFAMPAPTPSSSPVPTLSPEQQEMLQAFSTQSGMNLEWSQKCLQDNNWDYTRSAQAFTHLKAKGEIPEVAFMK
B4: Transcription initiation factor IIA subunit 1 (Homo sapiens), P52655 (parent)
chain: MANSANTNTVPKLYRSVIEDVINDVRDIFLDDGVDEQVLMELKTLWENKLMQSRAVDGFHSEEQQLLLQVQQQHQPQQQQHHHHHHHQQAQPQQTVPQQAQTQQVLIPASQQATAPQVIVPDSKLIQHMNASNMSAAATAATLALPAGVTPVQQILTNSGQLLQVVRAANGAQYIFQPQQSVVLQQQVIPQMQPGGVQAPVIQQVLAPLPGGISPQTGVIIQPQQILFTGNKTQVIPTTVAAPTPAQAQITATGQQQPQAQPAQTQAPLVLQVDGTGDTSSEEDEDEEEDYDDDEEEDKEKDGAEDGQVEEEPLNSEDDVSDEEGQELFDTENVVVCQYDKIHRSKNKWKFHLKDGIMNLNGRDYIFSKAIGDAEW
partner: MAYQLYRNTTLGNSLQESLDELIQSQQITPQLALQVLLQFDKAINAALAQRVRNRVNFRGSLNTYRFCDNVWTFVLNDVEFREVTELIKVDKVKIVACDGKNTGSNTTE
B5: Peroxisomal bifunctional enzyme (Homo sapiens), Q08426 (parent)
chain: MAEYTRLHNALALIRLRNPPVNAISTTLLRDIKEGLQKAVIDHTIKAIVICGAEGKFSAGADIRGFSAPRTFGLTLGHVVDEIQRNEKPVVAAIQGMAFGGGLELALGCHYRIAHAEAQVGLPEVTLGLLPGARGTQLLPRLTGVPAALDLITSGRRILADEALKLGILDKVVNSDPVEEAIRFAQRVSDQPLESRRLCNKPIQSLPNMDSIFSEALLKMRRQHPGCLAQEACVRAVQAAVQYPYEVGIKKEEELFLYLLQSGQARALQYAFFAERKANKWSTPSGASWKTASARPVSSVGVVGLGTMGRGIVISFARARIPVIAVDSDKNQLATANKMITSVLEKEASKMQQSGHPWSGPKPRLTSSVKELGGVDLVIEAVFEEMSLKKQVFAELSAVCKPEAFLCTNTSALDVDEIASSTDRPHLVIGTHFFSPAHVMKLLEVIPSQYSSPTTIATVMNLSKKIKKIGVVVGNCFGFVGNRMLNPYYNQAYFLLEEGSKPEEVDQVLEEFGFKMGPFRVSDLAGLDVGWKSRKGQGLTGPTLLPGTPARKRGNRRYCPIPDVLCELGRFGQKTGKGWYQYDKPLGRIHKPDPWLSKFLSRYRKTHHIEPRTISQDEILERCLYSLINEAFRILGEGIAASPEHIDVVYLHGYGWPRHKGGPMFYASTVGLPTVLEKLQKYYRQNPDIPQLEPSDYLKKLASQGNPPLKEWQSLAGSPSSKL
partner: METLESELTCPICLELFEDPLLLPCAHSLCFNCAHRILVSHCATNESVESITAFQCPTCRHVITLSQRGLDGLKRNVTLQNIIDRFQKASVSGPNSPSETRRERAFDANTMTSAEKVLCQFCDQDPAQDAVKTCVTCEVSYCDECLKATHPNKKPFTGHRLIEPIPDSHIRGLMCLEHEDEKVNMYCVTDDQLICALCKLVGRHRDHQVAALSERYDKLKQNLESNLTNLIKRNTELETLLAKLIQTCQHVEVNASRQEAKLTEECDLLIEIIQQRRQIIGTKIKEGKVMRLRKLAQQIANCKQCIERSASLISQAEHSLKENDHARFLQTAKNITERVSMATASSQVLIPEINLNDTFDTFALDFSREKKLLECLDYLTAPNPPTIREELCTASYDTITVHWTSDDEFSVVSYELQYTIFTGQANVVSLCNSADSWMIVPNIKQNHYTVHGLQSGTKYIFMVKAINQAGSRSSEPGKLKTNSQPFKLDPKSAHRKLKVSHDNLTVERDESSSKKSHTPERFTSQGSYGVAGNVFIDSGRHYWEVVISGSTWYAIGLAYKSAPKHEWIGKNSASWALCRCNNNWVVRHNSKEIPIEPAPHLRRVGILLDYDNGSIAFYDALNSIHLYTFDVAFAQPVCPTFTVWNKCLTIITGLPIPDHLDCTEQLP
B6: Syntenin-1 (Homo sapiens), O00560 (parent)
chain: MSLYPSLEDLKVDKVIQAQTAFSANPANPAILSEASAPIPHDGNLYPRLYPELSQYMGLSLNEEEIRANVAVVSGAPLQGQLVARPSSINYMVAPVTGNDVGIRRAEIKQGIREVILCKDQDGKIGLRLKSIDNGIFVQLVQANSPASLVGLRFGDQVLQINGENCAGWSSDKAHKVLKQAFGEKITMTIRDRPFERTITMHKDSTGHVGFIFKNGKITSIVKDSSAARNGLLTEHNICEINGQNVIGLKDSQIADILSTSGTVVTITIMPAFIFEHIIKRMAPSIMKSLMDHTIPEV
partner: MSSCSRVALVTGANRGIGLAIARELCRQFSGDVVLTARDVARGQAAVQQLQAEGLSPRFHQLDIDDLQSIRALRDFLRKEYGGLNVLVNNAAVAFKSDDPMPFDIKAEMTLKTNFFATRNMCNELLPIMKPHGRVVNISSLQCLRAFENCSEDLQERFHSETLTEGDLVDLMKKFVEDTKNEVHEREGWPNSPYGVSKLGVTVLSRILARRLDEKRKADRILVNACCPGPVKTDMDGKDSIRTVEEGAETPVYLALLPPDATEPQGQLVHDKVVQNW
B7: "tRNA (guanine-N(7)-)-methyltransferase non-catalytic subunit WDR4" (Homo sapiens), P57081 (parent)
chain: MAGSVGLALCGQTLVVRGGSRFLATSIASSDDDSLFIYDCSAAEKKSQENKGEDAPLDQGSGAILASTFSKSGSYFALTDDSKRLILFRTKPWQCLSVRTVARRCTALTFIASEEKVLVADKSGDVYSFSVLEPHGCGRLELGHLSMLLDVAVSPDDRFILTADRDEKIRVSWAAAPHSIESFCLGHTEFVSRISVVPTQPGLLLSSSGDGTLRLWEYRSGRQLHCCHLASLQELVDPQAPQKFAASRIAFWCQENCVALLCDGTPVVYIFQLDARRQQLVYRQQLAFQHQVWDVAFEETQGLWVLQDCQEAPLVLYRPVGDQWQSVPESTVLKKVSGVLRGNWAMLEGSAGADASFSSLYKATFDNVTSYLKKKEERLQQQLEKKQRRRSPPPGPDGHAKKMRPGEATLSC
partner: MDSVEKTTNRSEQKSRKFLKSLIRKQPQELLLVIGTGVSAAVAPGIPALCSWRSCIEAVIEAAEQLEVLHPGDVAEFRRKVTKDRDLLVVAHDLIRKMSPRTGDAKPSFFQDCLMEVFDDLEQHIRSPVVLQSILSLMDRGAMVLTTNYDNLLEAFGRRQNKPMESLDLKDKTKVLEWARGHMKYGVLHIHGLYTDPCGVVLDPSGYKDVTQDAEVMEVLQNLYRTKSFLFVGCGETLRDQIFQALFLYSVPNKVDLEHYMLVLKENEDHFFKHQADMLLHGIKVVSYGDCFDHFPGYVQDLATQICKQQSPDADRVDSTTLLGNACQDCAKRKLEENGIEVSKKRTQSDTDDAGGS

Variants of: B1
Settings: with tha10_human THAP10, Q9P2Z0
Chain of tha10_human THAP10, Q9P2Z0 (Q9P2Z0 whole entry): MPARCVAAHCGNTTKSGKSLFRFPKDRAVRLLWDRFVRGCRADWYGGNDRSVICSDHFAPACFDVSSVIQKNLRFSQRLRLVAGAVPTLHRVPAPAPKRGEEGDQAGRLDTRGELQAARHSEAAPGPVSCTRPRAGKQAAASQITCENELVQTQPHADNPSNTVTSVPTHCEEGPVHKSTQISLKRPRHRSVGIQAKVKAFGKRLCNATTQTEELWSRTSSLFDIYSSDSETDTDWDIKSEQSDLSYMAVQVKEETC

| Variant | effect of a mutation on the interaction |
| --- | --- |
| N33S | with no effect |

Variants of: B2
Settings: with myog_human MYOG

| Variant | effect of a mutation on the interaction |
| --- | --- |
| D157Y | disrupting interaction strength |
| V186G | with no effect |

Variants of: B3
Settings: with nxf1_human NXF1, Q9UBU9

| Variant | effect of a mutation on the interaction |
| --- | --- |
| L12H | disrupting interaction strength |

Variants of: B4
Settings: with t2ag_human GTF2A2, P52657

| Variant | effect of a mutation on the interaction |
| --- | --- |
| P208S | with no effect |

Variants of: B5
Settings: with tri18_human MID1, O15344

| Variant | effect of a mutation on the interaction |
| --- | --- |
| R483Q | with no effect |
| R556G | with no effect |
| I646T | disrupting interaction strength |
| S703F | with no effect |
| L715S | with no effect |

Variants of: B6
Settings: with cbr3_human CBR3, O75828

| Variant | effect of a mutation on the interaction |
| --- | --- |
| K124R | with no effect |

Variants of: B7
Settings: with FAM118A

| Variant | effect of a mutation on the interaction |
| --- | --- |
| A275T | with no effect |
